# Source: the supplement of paper PMC10126150
# ± gives the standard deviation of the averaged measurements.
# Tested on: ATP
# Experiment: switch fluorescence ratio, 500 uM ATP over buffer (Cy3 cluster intensity, sum of 5 cycles each) (fold (ratio)); higher = stronger signal-on switching upon ATP binding; sequences stand for … in TCGTCGGCAGCGTCAGATGTGTATAAGAGACAGTTTTTTTTTTTTTTTTTTTTTTTTT…TC
# Conditions: aptamer strand: ATP DNA aptamer (quencher-CACCTGGGGGAGTATTGCGGAGGAAGG + anchor), 100 nM annealed; ATP concentration: 500 uM
# How it was run: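 Imaging in selection buffer was followed by imaging after 15 min with 500 uM ATP at 22 °C, for Cy3-labelled switching-strand clusters annealed to 100 nM quencher-labelled ATP aptamer on a modified Illumina MiSeq flow-cell. Five of these buffer/ATP cycles ran, separated by NaOH stripping and re-annealing. The fluorescence ratio per cluster is summed target-cycle over summed buffer-cycle Cy3 intensity, averaged per switch-domain sequence; clusters outside 100-1000 RFU were removed.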
# 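Further: ATP exposure 15 min at 22 °C before imaging.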
row,Sequence,switch fluorescence ratio
1,TATGAAAGTG,0.983 ± 0.035
2,CAGAGCGGGG,0.998 ± 0.023
3,TTTCTTCTCA,1.01 ± 0.024
4,TTTGTTAGGC,0.991 ± 0.029
5,CGTGCTTTTT,1.01 ± 0.018
6,TACTGTTCGA,1.05 ± 0.016
7,TTGACTATCG,1 ± 0.076
8,AATTGCACGG,1.04 ± 0.016
9,TTTTGAGATA,0.97489 ± 3.4e-05
10,TTTGTCTAGG,0.994 ± 0.019
11,TAATAGGCTT,1.01 ± 0.027
12,TTGGGTGGGA,0.986 ± 0.044
13,CGTAAAGGGG,0.983 ± 0.026
14,TTAGTATTTT,1.02 ± 0.087
15,CCGGTATTGA,0.994 ± 0.017
16,TTACGGAAGT,1.11 ± 0.13
17,CGGGTGATTA,1 ± 0.035
18,CGCTGGGATT,0.9913 ± 0.0057
19,GACTGGGTCG,1.06 ± 0.012
20,GTTACCGGAC,1.5 ± 0.034
21,AGTCCTTAGC,1 ± 0.071
22,TTGGGATGTT,0.9904 ± 0.009
23,ATTTGCGGTT,0.9949 ± 0.0022
24,CGGGGTCATG,0.991 ± 0.024
25,CAGTTACGAT,1.03 ± 0.032
26,TTCACCCGTC,0.971 ± 0.023

row,Sequence,switch fluorescence ratio
1,CGTTAGTAAG,0.982 ± 0.033
2,GGTTGGATTT,0.978 ± 0.017
3,GATGTAGGAT,0.978 ± 0.014
4,TGTGGGATGT,0.9704 ± 0.0039
5,TCGTTTGGGC,1.02 ± 0.019
6,ATGTAATAGT,1.014 ± 0.0069
7,CGGGTGCCAT,0.994 ± 0.018
8,AATGGTTATC,0.9753 ± 0.0046
9,TTAAAATGGT,1 ± 0.052
10,CTGCAATAGA,4.41 ± 0.16
11,GGAACTGTGC,0.948 ± 0.12
12,TTCCCATGTT,1 ± 0.012
13,TTAGGACTT,1.02 ± 0.073
14,TTGGCTCTGG,0.987 ± 0.02
15,AAAGGGTGAG,0.9726 ± 0.0064
16,AACCTGGTAT,1.01 ± 0.035
17,TTTAGAATTT,1.01 ± 0.019
18,GAGGATTTAG,0.964 ± 0.013
19,TGGAAAATTC,1.019 ± 0.0078
20,GCTGGTTGGC,0.964 ± 0.016
21,TCTCGAGGGA,0.981 ± 0.01
22,CGGTTTTGAG,1.01 ± 0.034
23,GGGTGGCAGC,0.993 ± 0.031
24,TGTGGATGTC,0.977 ± 0.038
25,AAGGTTCTGA,0.981 ± 0.016
26,GACCCGGCTA,1.04 ± 0.018

row,Sequence,switch fluorescence ratio
1,TGCATGTTTG,0.975 ± 0.056
2,GACCTAGTGT,1.03 ± 0.019
3,GACAGGGGCT,1.06 ± 0.022
4,TTAAGATGCT,0.997 ± 0.036
5,GCGACATCGT,1.027 ± 0.0091
6,GTTTGAAGGG,0.974 ± 0.05
7,GCTTCTCACA,0.981 ± 0.028
8,AGGAGGACGT,0.964 ± 0.06
9,ATTTTTTACG,1.02 ± 0.031
10,GGAGACGGTT,1 ± 0.051
11,GGTTGTTTTG,1.017 ± 0.0097
12,AATAGGGTTC,0.982 ± 0.025
13,AATCCTTGAG,1.02 ± 0.034
14,TTTTAATCCA,1.01 ± 0.033
15,TGCATGGCAA,1.03 ± 0.013
16,AGAGGGGTCG,1.02 ± 0.058
17,TTGACACTGG,1.04 ± 0.02
18,CTATGCAATT,3.33 ± 0.29
19,GCGACGAGGG,1.033 ± 0.0017
20,CTCTGAGGGG,1.16 ± 0.1
21,GAAATATCAA,0.974 ± 0.039
22,ACTGGTGGCA,1.04 ± 0.028
23,AGGATGTAAA,1.025 ± 0.0045
24,GTTAAATTCA,1 ± 0.024
